Reference: the nanobody polyreactivity screen of Harvey et al. (2022)

Test: yeast display, Sf9 membrane polyspecificity reagent, FACS + sequencing; frameworks hold sequencing errors
How it was run: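 Synthetic nanobody libraries on Saccharomyces cerevisiae BJ5465 were galactose-induced for 36–48 hours, stained 1 hour at 4 °C with 10% biotinylated, detergent-solubilized Sf9 membrane reagent and enriched on streptavidin microbeads. FACS then separated cells into low and high (top ~1%) gates by anti-HA (expression) and streptavidin (reagent binding) fluorescence. Genes were colony-PCR amplified, MiSeq 2 × 250 sequenced and CDR-length filtered. A clone's polyreactivity label is that of its gate of origin.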

Row | Sequence | polyreactivity (PSR sort gate)
1 | QVQLVESGGGLVQAGGSLRLSCAASGSIFVSYTMGWYRQPPGKERELVAAISGGGASTYYADSVKGRFTISRDNAKNTVYLQMNSLKPEDTAVYYCNASRKRSYDYWGQGTQVTVSS | low polyreactivity
2 | QVQLVESGGGLVQAGGSLRLSCAASGFTFRSYAMGWYRQAPGKERELVASISPGATTKYADSVKGRFTISRDNAKNTVYLQMNSLKPEDTAVYYYEVYQILVRRLSYWGQGTQVTVSC | high polyreactivity
3 | QVQLVESGGGLVQAGGSLRLSCAASGFTFWSYGMGWYRQAPGKERELVAAISWSGGRTYYADSVKGRFTISRDNAKNTVYLQMNSLKPDDTAVYYCAAQPYYYFDEYTQYDYWGQGTQVTVSS | high polyreactivity
4 | QVQLVESGGGLVQAGGSLRLSCASSGSTFYFNAMGWSRQAPGKERELVAGNSSGGSTYYADSVKGRFTISRDNAKNTVYLQMNSLKPEDTAVYYCAADSDTFYYTGYDYDYWGQGTQVTVSS | low polyreactivity
5 | QVQLVESGGGLDQAGGSLRLSCAASGITFTVNARGWYREAPGKERELVAGITWSGGSTYYADSVKGRFTISRDNAKNTVYLQMNSLKPEDTAVYYCNADSDGFWSIYDYWGQGTQVTVSS | low polyreactivity
6 | QVQLVESGGGLVQAGGSLRLSCAASGSTFWDYDMGWYRQAPGKERELVASIRNGGSTNYADSVKGRFTISRDNAKNTVYLQMNSLKPEDTAVYYCAADRQPVYPSLGVYWDYGHDYWGQGTQVTVSS | low polyreactivity
7 | QVQLVDSGGGLVQAGGSLRLSCAASGITFNSYVMGLYRQAPGKERELVAVISRGGGITYYADSVKGRFTISRDNAKNTVYLQMNSLKPEDTAVSYCAADHTHGYVLYYNDNYWGQGTQVTVSS | high polyreactivity
8 | QVQLVESGGGLVQAGGSLRLSCAASGIIFQIYAKGWYRQAPGKERELVAAISGGGNTDYADSVKGRFTISRDNAKNTVYLQMNSLKPEDTAVYYCAADFVDWVWSRYGLFEHDYWGQGTQVTVSS | low polyreactivity
9 | QVQLVESGGGLVQAGGSLRLSCAASGSIFAVYAMGWYRQAPGKERELVAASSTDYADSVKGRFTISRDYAKNTVYLQMNSLKPEDTAVYYCANVGFGIPGGFYYWGQGTKVTVSS | low polyreactivity
10 | QVQLVESGGGIVQAGGRLRLSCAASGSILAGYALGWYRQSPGKERELVAAISESGGNTYYADSVKGRFTISRDNAKNTVYLQMNSLKPEDTAVYYCAADLGYGPLRELEYWGQGTQVTVSS | low polyreactivity
11 | QVQLVESGGGLVQAGGSLRLSCAASGRTFVVYAMGWYRQAPGKERELVAVISFTRDSTFYADSVKGRFTISRDNAKNTVYLQMNSLKPEDTAVYYCAADFRRVFSKYSYYLYFEFDYWGQGTQVTVSS | low polyreactivity
12 | QVQLVESGGGLVQAGGSLRLSCAASVLIFDGYAMGWYRQAPGKEREFVADIDFGGGSTYYADSVKGRFTISRDNAKNTVYLQMNSLKPEDTAVYYCNAVWDDYGFYSPYVVVEYDYWGQGTQVTVSS | high polyreactivity
13 | QVQLVESGGGLVQAGGILRLSCASSGITFRQYAMEWYRQAPGKERELVATITSRGGSTYYADSVKGRFTISRDNAKNSVYLQMISLKPEDTADYYCAAKTPTKDRGSDFDYWGQCTQVTVSS | high polyreactivity
14 | QVQLVESGGGLVQAGGSLRLSCAASGRISFVNAMGWYRQAPGKERELVAAISRGGSTNYADSVKGRFTISRDNAKNTVYLQMNSLKPEDTAVYYCAAQGNNYVRHTYGYWGQGTQVTVSS | low polyreactivity
15 | QLQLEESGGGLVQAGGSLRLSCAASVRTLRRNAMGWYRQAPGKEKELVAAITGSGGSTYYADSVKGRFTISRDNAKNTVYLQMNSLKPEDTAVYYCAARGPSRRRDGSDYWGQGTQVTVSS | high polyreactivity
16 | QVQLVESGGGLVQAGGSLRLSCAASGGTFSYYAMGWYRQAPGKERELVAAINWSGASTYYADSVKGRFTISRDNAKNTVYLQMNSLKPEDTAVYYCNVYLGILYKYDYWGQGTQVTVSS | low polyreactivity
17 | QVQLVESGGGLVQAGGSLRLSCAASGSTFGKNAMGWYRQAPGKERELVASITWRGGSTYYADSVKGRFTISRDNAKNTVYLQMNSLKPEDTAVYYCATKWHIHIGSYKYYYWGHGTQVTVSS | low polyreactivity
18 | QVQHVESGRGLVQAGGSLRLSCASSGFTFRRNAMGWYRQAPGKVRELVAVITSSARTNYADSVKGRFTISRDNAKNTVYLQMKSLKPEDTAVYYCNAYGYRQSSSDKYGYWGQCTQVTVSS | high polyreactivity
19 | QVQLVESGGGIVQAGGSLRLSCAASGRIFGFYAMVWYRQAPGNERELVAAITINTGSTSYADSVKGRFTSSRDNAKNTDSLPMNSLKPEDTAVYYCATDAAAPKYDYWGQGPQVTVSS | low polyreactivity
20 | QVQLVESGGGLVQAGCSLRLSCAASGSIFPANAMGWYRQAPGKEWEFVAAINWSTGTTYNADSVKGRFTISRDNAKNTVYLQMTSLKPEDTAFYHCAAGDWYSGNTTHFYYWGQGTQVTVSS | low polyreactivity
21 | QVQLVESGGGLVQAGGSLRLSCAASGRIVRNAMGWYRQSPGKERELVAAISRSGGSTYYADSVKGRFTISRDNAKNTVYLQMNSLKPEDTAVYYCAKRSTSQSLQGEYWGQGTQVTVSS | high polyreactivity
22 | QVQLVESGVGLVQAGGSLRLSCAASGITFVGYAMGWSRQAPGKERELVASITRGGGSTYYADSVKGRFTISRDNAKNTVYLQMNSLKPEDTAVYYCAARSHSTYYYWGQGTQVTVSS | high polyreactivity

Row | Sequence | polyreactivity (PSR sort gate)
23 | QVQLVESGGGLVQAGGSLRLSCAASGLTLGSYAMGWYRQAPGKERELVAAISRRSGRTYYADSVKGRFTISRDNAKNTVYLKMNSLKPEDTAVDYCNRGYTAQVYTEFDYWGQGTQVTVSS | low polyreactivity
24 | QVQLVESGGGLVQAGVSLRLSCAASGIIFAGYVMGWYRQAPGKARELVAAISYRGGSTNYADSVKGRFTISRDNAKNTVYLQMNSLKPEDTAVYYCNRYSRDSRYGYLKFGYDYWGQGTQVTVSS | high polyreactivity
25 | QVQLVESGGGLVQAGGSLRLSSAPSGSTFYGYSRGWYRPAPGKERELVAAISSRGGSTKYADSVKGRFTISRDNAKNTVYLQMNSLKPEDTAVYYCAATSRSSRRYYYWGQGTQVTVSS | high polyreactivity
26 | QVQLVESGGGLVQAGGSLRLRCAASGITFSGNAMGWYRQAPRKERELVAAITFSGGRTYYADSVKGSFTISRDNAKNTVYLQMNSLKPEDSAVYYCAAETPRGRWLGDYWGQGTQVTVSS | low polyreactivity
27 | QVQLVESGGGLVQAGGSLRLSCAASGLTFSYYAMGWYRQAPGKERELVAAISWSGGITYYADSVKGRFKISRDNAKNTVYLQMNSLKPEDTAVYYCAADGYPTLFDYWGQGTQVTVAS | high polyreactivity
28 | QVQLVESGGGLVQAGGSLRLSCAASGRIFAYYTMGWYRQAPGKERELVAAITSRGGSTYYADSVKGRFTISRDNAKKTVYLQMNSLKPEDTAVYYCAALRPSNVDYWGQGTQVTVSS | high polyreactivity
29 | QVQLVESGGGLVQAAGSLRLSCAASGSTFPYYAMGWYRQAPGQERELVAAIPRSGGSTYSADSVKGRFTISRDHAKNTVYLQMNSLKPEDTAVYYCAAKLAQRYFYRYDYWGPGTQVTVSS | high polyreactivity
30 | QVQLVESGGGLVQAGGSLRVSCAASGSIFQYYGMGWYRQAPGKERELVAAISRGGSTNYADSVKGRFTISRDYAKNTGYLQMNSLKPEDTAVYYCNARTYRKAYSGYNYWGQGTQVTVSS | high polyreactivity
31 | QVQLVESGGGLVQAGGSLRLSCAASGRIFAYYAMGWYRQAPGKERELGATITGGGDRTYYADSVKGRFTISRDNAKNTVYLQMNSLKPEDTAVYYCNARVWYYSPYYYWGQRTQVTVSS | low polyreactivity
32 | QVQLVESGGGLVQAGGSLRLSCAASGRIFWTYAMGWYRQAPGKERELVASITWSGGTTYYADSVKGRFTISRDNAKNTVYLQMNSLKTEDTAVYYCNTDVLAPYDSGYWGQGTQVTVSS | low polyreactivity
33 | QVQLQESVGGLVHAGGSLRLSCAASGSISAVGAMGWYRQAPGKEREFAASVNWGTNTNYADSVKGRFTISRDNAKNTLYLQMNSLKPEDTAVYYCAVLPDWETRHDYWGHGTQVTVSS | low polyreactivity
34 | QVQLVESGGGLVQAGGSLRLSCAASGLTFKRYAMGWYRQAPGKERELVAGINYSSGSTYYADSVKARFTISRDNAKNTVYLQMNSLKPEDTAVYYCAADGGISAGANSGYDYWGQGTQVTVSS | high polyreactivity
35 | QVQLVESGGGLVQAGGSLRLSCAASGSTFRRYTMGWYRQAPGKERELVAAITWSGGSTYYADSVKGRFTISRDNAKNTVYLQMNSLKPEDTAVYYCAADRPYHTREYYYWGQGTQVNVSS | low polyreactivity
36 | QVQLVESGGRLVQAGGSLRLSCAASGSIFYTYAMGWYRQAPGKEMELVAAITYRVGSTYYADSVKGRFTISRDNAKNTVYLQMNSLKPEDTAVYYCNADKGGHVRHYDYWGQGTQVTVSS | low polyreactivity
37 | QVQLVESGGGLVQAGGSLRLSCAASGSTFYPNAMGWYRQAPGKERELVAAITDSVGTTNYADSVKGRFTISRDNAKNTVYLQINSLKPEDTAVYYCTAPIGGSYNTRRAAEYDYWGQGTQVTVSS | low polyreactivity
38 | QVQLVESGGGLVQAGGSIRLSCAASGVIFYGNSIGWYRQAPGKERELVAAISRRGGRTYYADSVKGRFTNSRDNAKITVYLQMNSLKPEDTAVYYCAADVIYSGDYWGQGTQVTVSS | high polyreactivity
39 | QVQLVESGGGLVQAGGSLRLSCAASGITFNQYAMGWYRQAPGKERELVARITKRGGSTYYADSVKGRFTISRDNAKNTVYLQMNSLKPEDTAVYYCAARTYYQEYDYWGQGTQVTVSS | high polyreactivity
40 | QVQLVESGGGLVQAGGSLRLSCAASGRIFVYNAKGWNRQAPGKERQLVAAISYNGGGTYYADSVKGRFTISRDNAKNTVYLQMNSLKPEDTAVYYCAARYRSWTGKYEYWGQGTQVTVSS | high polyreactivity
41 | QVQLVESGGGLVQAGGSLRLSCAASGRIFAYYAMGWNRQAPGKERELVAAISRSGVSTYYADSVKGRFTISRDNAKNTVYLQRNSLKPEDTAVYYCAARWRSGFTSGDYWGQGTLVTVSS | low polyreactivity
42 | QVQLVESGGGLVQAGGSLRLSCAASGRTFVGYAMGWYRQAPGKERELVAAIRNGGGTYYADSVKGRFTISRDNAKNTVYLQMNSLKPEDTAVYYCAARLPRSLKVGYYWGQGTQVTVSS | high polyreactivity
43 | QVQLVESGGGLVQAGGSLRLSCAASGSTFLYNTMGWYRQAPGKESELVATITSRGDRTYYADSVKGRFTISRDNAKNTVYLQMNSLKPEDTAVYYCNAYGGNYPQSYRYYYWGQGTQVTVSS | low polyreactivity
